For assay [1], the target named is HLA-A*02:06 molecule (product of HLA-A*02:06 gene) on RA2.6 cells (human). In words: flow cytometry, RA2.6 cells, peptide dilution series, BB7.2 staining. The method, then: First, the RA2.6 cells were cultured overnight at 26° C. to accumulate the HLA-A*02:06 molecules unbound to the peptide on the cell surface. Any of peptide dilution series was added thereto for binding at 26° C. for 60 minutes.
Subsequently, the mixture was cultured at 35° C. for 4 hours, resulting in the denaturation of the empty HLA-A*02:06 molecule unbound to the peptide and the loss of its steric structure. A fluorescent labeled monoclonal antibody, BB7.2, specifically recognizing a peptide-bound HLA-A*02:06 molecule, was added thereto, which was then incubated on ice for 20 minutes to stain the cells.
(§1) Thereafter, the amount of fluorescence per cell was measured using a flow cytometer, and the dissociation constant, Kd value, was calculated using a method as published in a paper by the present inventor (Udaka et al., Immunogenetics, 51, 816-828, 2000).
(A flow cytometer gives signals particle by particle.)

In assay [2] the target is T1, HLA-A*02:01 molecule (product of HLA-A*02:01 gene) on T2 cells (human).
T1 construct: MHC class I molecule on TAP-deficient T2 cells; stabilisation read with antibody BB7.2
In words: flow cytometry, T2 cells with added b2m, peptide dilution series, BB7.2 staining. The method, then:
T2 cells and purified β2m were added to stepwise dilution series of a peptide whose binding capacity was to be measured, which was then incubated at 37° C. for 4 hours.
as §1

Assay [3] concerns the target T2, HLA-A*24:02 molecule (product of HLA-A*24:02 gene) on C1R-A24 cells (human).
T2 construct: MHC class I molecule emptied of peptide; the peptide under test reassembles with heavy chain and added b2m; assembly stained with antibody 17A12
Description: flow cytometry, acid-stripped C1R-A24 cells with added b2m, peptide dilution series, 17A12 staining. The method, then:
First, C1R-A24 cells were exposed to acidic conditions of pH 3.3 for 30 seconds to dissociate and remove endogenous peptides which were originally bound to the HLA-A*24:02 molecule and a light chain, β2m, which was commonly associated with HLA class I molecules. After neutralization, purified β2m was added to the C1R-A24 cells, which was then added to peptide dilution series. The mixtures were each then incubated on ice for 4 hours. The 3-molecule assembly (MHC-pep) consisting of the HLA-A*24:02 molecule, the peptide, and β2 m which had been reasociated during the incubation was stained with a fluorescent labeled monoclonal antibody, 17A12, recognizing the assembly.
Subsequently, the number of MHC-pep's per C1R-A24 cell (which is proportional to the fluorescent intensity of the above fluorescent antibody) was quantitatively measured using a fluorescent cell analyzer, FACScan (Becton, Dickinson and Company). The binding dissociation constant, Kd value, between the HLA-A*24:02 molecule and the peptide was calculated from the average fluorescent intensity per cell using a method as published in a paper (Udaka et al., Immunogenetics, 51, 816-828, 2000) by the present inventor.

B1: GPC3-derived peptide LLQSASMEL (SEQ ID NO: 8) (peptide)
peptide: LLQSASMEL
notes: Synthetic peptide; only the start position in GPC3 is printed
In the case of B1, the “Binding Experiment Data (log Kd)” value in assay [1] is -5.88 log Kd (concentration unit not printed); in assay [2] it was -6.14 log Kd (concentration unit not printed); in assay [3], -5.49 log Kd (concentration unit not printed).

B2: GPC3-derived peptide ALNLGIEVI (SEQ ID NO: 7) (peptide)
peptide: ALNLGIEVI
notes: as for B1
In the case of B2, the results for the “Binding Experiment Data (log Kd)” value in assay [1], in assay [2] and in assay [3] were -4.16 log Kd (concentration unit not printed), -5.92 log Kd (concentration unit not printed) and -3.96 log Kd (concentration unit not printed), respectively.

B3: GPC3-derived peptide SALDINECL (SEQ ID NO: 3) (peptide)
peptide: SALDINECL
notes: as for B1
As to B3, the “Binding Experiment Data (log Kd)” value in assay [1] is -6.32 log Kd (concentration unit not printed).

B4: GPC3-derived peptide KLTTTIGKL (SEQ ID NO: 9) (peptide)
peptide: KLTTTIGKL
notes: as for B1
Consider B4, for which the results for the “Binding Experiment Data (log Kd)” value in assay [1], in assay [2] and in assay [3] were -5.03 log Kd (concentration unit not printed), -4.97 log Kd (concentration unit not printed) and -5.21 log Kd (concentration unit not printed), respectively.

B5: GPC3-derived peptide SLQVTRIFL (SEQ ID NO: 4) (peptide)
peptide: SLQVTRIFL
notes: as for B1
For the molecule B5, the “Binding Experiment Data (log Kd)” value was -5.21 log Kd (concentration unit not printed) in assay [1], -6.21 log Kd (concentration unit not printed) in assay [2] and -5.34 log Kd (concentration unit not printed) in assay [3].

B6: GPC3-derived peptide GMIKVKNQL (SEQ ID NO: 10) (peptide)
peptide: GMIKVKNQL
notes: as for B1
For B6, the “Binding Experiment Data (log Kd)” value in assay [1] was -3.36 log Kd (concentration unit not printed); in assay [2], -4.76 log Kd (concentration unit not printed); in assay [3], -6.9 log Kd (concentration unit not printed).

B7: GPC3-derived peptide MVNELFDSL (SEQ ID NO: 1) (peptide)
peptide: MVNELFDSL
notes: Synthesized by Fmoc solid-phase method, purity 95% or more; the end is derived from the length of 9
With B7, the entries for the “Binding Experiment Data (log Kd)” value in assay [1], in assay [2] and in assay [3] were -6.14 log Kd (concentration unit not printed), -5.31 log Kd (concentration unit not printed) and -4.7 log Kd (concentration unit not printed), respectively.

B8: GPC3-derived peptide GYICSHSPV (SEQ ID NO: 6) (peptide)
peptide: GYICSHSPV
notes: as for B1
For the molecule B8, the “Binding Experiment Data (log Kd)” value in assay [3] is -6.55 log Kd (concentration unit not printed).

B9: GPC3-derived peptide LFDSLFPVI (SEQ ID NO: 2) (peptide)
peptide: LFDSLFPVI
notes: as for B1
For B9, the figures for the “Binding Experiment Data (log Kd)” value in assay [2] and in assay [3] were -5.07 log Kd (concentration unit not printed) and -7.43 log Kd (concentration unit not printed), respectively.

B10: GPC3-derived peptide ARLNMEQLL (SEQ ID NO: 11) (peptide)
peptide: ARLNMEQLL
notes: as for B1
Regarding B10, the entries for the “Binding Experiment Data (log Kd)” value in assay [1], in assay [2] and in assay [3] were -2.76 log Kd (concentration unit not printed), -3.84 log Kd (concentration unit not printed) and -5.2 log Kd (concentration unit not printed), respectively.

The values are drawn from patent US20190062389A1 (CYTLIMIC, published 2019).
